Tests used:
[1] = target: plasma purified human AT-III (antithrombin III), in complex with low molecular weight heparin
[2] = target: Antithrombin III (plasma purified human AT-III) in complex with unfractionated heparin; assay: ratio of K0.5 of variant to K0.5 of Catalyst Biosciences WT FIXa, AT-III/UFH inhibition assay

Chain of Factor X (FX), P00742 (P00742 whole entry, looked up): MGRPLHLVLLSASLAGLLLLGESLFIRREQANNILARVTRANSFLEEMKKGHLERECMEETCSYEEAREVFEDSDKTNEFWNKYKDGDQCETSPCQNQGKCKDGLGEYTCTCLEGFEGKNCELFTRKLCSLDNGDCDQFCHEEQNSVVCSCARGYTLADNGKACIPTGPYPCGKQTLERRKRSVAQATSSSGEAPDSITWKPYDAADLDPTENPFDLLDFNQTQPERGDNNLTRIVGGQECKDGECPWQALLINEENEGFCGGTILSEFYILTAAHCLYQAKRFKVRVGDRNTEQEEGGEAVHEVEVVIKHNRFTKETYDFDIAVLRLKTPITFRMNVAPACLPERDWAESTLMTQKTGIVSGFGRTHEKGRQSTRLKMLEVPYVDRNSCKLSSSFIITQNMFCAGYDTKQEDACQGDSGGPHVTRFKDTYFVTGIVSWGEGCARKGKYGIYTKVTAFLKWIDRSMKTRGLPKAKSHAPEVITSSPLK
Chain of Factor X, P00742 (P00742 whole entry, looked up): as above

B1: FIXa-K293E/R338E/R403E (protein)
chain 1: not shown
chain 2: not shown
For B1, the K0.5-mut/K0.5-wt (against Catalyst Biosciences WT FIXa), AT-III/LMWH [1] was 14.2 fold, the KM of FX activation by FIXa in the Xase complex (FVIIIa, PC/PS vesicles, Ca2+); fluorogenic Spectrafluor FXa assay (Factor X, P00742) was 0.05 µM and the KM (Factor X (FX), P00742) was 0.05 µM.

B2: FIXa variant R318Y/R338E/E410N/T412V (protein)
chain 1: not shown
chain 2: not shown
B2 gave a K0.5-mut/K0.5-wt [2] of over 517.
